The labels stand for the following.
B1: Mitochondrial fission 1 protein (Saccharomyces cerevisiae), P40515 (parent)
chain: MTKVDFWPTLKDAYEPLYPQQLEILRQQVVSEGGPTATIQSRFNYAWGLIKSTDVNDERLGVKILTDIYKEAESRRRECLYYLTIGCYKLGEYSMAKRYVDTLFEHERNNKQVGALKSMVEDKIQKETLKGVVVAGGVLAGAVAVASFFLRNKRR
partner: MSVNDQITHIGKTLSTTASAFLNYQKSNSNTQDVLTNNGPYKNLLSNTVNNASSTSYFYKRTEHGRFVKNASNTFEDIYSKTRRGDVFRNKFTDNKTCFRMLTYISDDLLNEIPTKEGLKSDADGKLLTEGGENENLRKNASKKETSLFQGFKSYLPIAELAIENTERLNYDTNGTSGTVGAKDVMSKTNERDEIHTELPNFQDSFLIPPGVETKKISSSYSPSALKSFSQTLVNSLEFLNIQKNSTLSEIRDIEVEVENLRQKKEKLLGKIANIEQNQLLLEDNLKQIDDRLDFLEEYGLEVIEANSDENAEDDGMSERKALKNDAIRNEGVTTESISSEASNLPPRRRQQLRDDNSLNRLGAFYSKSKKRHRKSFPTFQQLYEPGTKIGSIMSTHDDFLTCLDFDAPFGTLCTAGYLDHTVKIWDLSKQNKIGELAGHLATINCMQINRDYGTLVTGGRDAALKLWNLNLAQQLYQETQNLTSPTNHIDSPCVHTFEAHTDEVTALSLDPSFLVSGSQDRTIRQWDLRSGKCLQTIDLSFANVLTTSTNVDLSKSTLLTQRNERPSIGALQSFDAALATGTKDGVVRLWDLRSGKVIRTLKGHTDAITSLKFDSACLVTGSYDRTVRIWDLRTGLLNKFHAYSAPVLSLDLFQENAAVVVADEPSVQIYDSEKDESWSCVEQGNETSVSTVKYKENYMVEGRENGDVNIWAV
B2: Mitochondrial division protein 1 (Saccharomyces cerevisiae), P47025 (parent)
chain: B1 partner
partner: B1 chain
B3: CCR4-associated factor 4 (Saccharomyces cerevisiae), P36130 (parent)
chain: MGSGDTRGESSLVAKPIEIILNKLPHAILAQQQFQKYITSPIYRYLSKLLLFREVAWPESTKDTQKGQVGIFSFQNNYADSATTFRILAHLDEQRYPLPNGAAEKNLPSLFEGFKATVSIIQQRLLLDNVDGATNSDKEKYVQLPDINTGFVNKTYSRIDLTHLLEDVETNVENLSINKTLEMDELTRLDSMINELESRKLKILERVKHIDSKSTNLENDVTLIKDRINFIEEYNLEADREQSLRKQMEEERSSEASSFTQNEEAISSLCDVESKDTRLKDFYKMPHEKSHDKNRQIISETYSRNTTAFRMTIPHGEHGNSITALDFDTPWGTLCSSSYQDRIVKVWDLNHGIQVGELPGHLATVNCMQIDKKNYNMLITGSKDATLKLWDLNLSREIYLDHSPLKEKTEEIVTPCIHNFELHKDEITALSFDSEALVSGSRDKKIFHWDLTTGKCIQQLDLIFTPTHSDIKMPARSLNNGACLLGTEAPMIGALQCYNSALATGTKDGIVRLWDLRVGKPVRLLEGHTDGITSLKFDSEKLVTGSMDNSVRIWDLRTSSILDVIAYDLPVSSLDFDGKLITVGANEGGVNVFNMERDEHWMTPEPPHSLDGDELSRRIAIVKYKDGFLINGHNDGDINVWTL
partner: B1 chain

In one assay the parent is B1. The conditions noted are these: with mdv1_yeast MDV1, P47025.
With MTKVDFWPTLKDAYEPLYPQQLEILRQQVVSEGGPTATIQSRAAYAWGLIKSTDVNDERLGVKILTDIYKEAESRRRECLYYLTIGCYKLGEYSMAKRYVDTLFEHERNNKQVGALKSMVEDKIQKETLKGVVVAGGVLAGAVAVASFFLRNKRR [F43A;N44A], the “effect of a mutation on the interaction” value is listed as “disrupting interaction”.
Same read-out and setting: to MTKVDFWPTLKDAYEPLYPQQLEILRQQVVSEGGPTATIQSRFNYAAGLIKSTDVNDERLGVKILTDIYKEAESRRRECLYYLTIGCYKLGEYSMAKRYVDTLFEHERNNKQVGALKSMVEDKIQKETLKGVVVAGGVLAGAVAVASFFLRNKRR [W47A] belongs “disrupting interaction”.
The same measure, in the same setting: as for MTKVDFWPTLKDAYEPLYPQQLEAARQQVVSEGGPTATIQSRFNYAWGLIKSTDVNDERLGVKILTDIYKEAESRRRECLYYLTIGCYKLGEYSMAKRYVDTLFEHERNNKQVGALKSMVEDKIQKETLKGVVVAGGVLAGAVAVASFFLRNKRR [I24A;L25A], the entry is “disrupting interaction”.

The variants in another assay derive from B2. The conditions noted are these: with fis1_yeast FIS1, P40515.
On to I105A, for which the “effect of a mutation on the interaction” value is “disrupting interaction”.
Still for that read-out and setting: to L148A belongs “disrupting interaction”; to F152A, “disrupting interaction”; to F149A, “disrupting interaction”.
Same read-out and setting: as for F99A;R100A, the entry is “disrupting interaction”.

A further assay covers variants of B3. The conditions noted are these: with fis1_yeast FIS1, P40515.
Regarding F85A;R86A, the “effect of a mutation on the interaction” value was “disrupting interaction strength”.
Still for that read-out and setting: to F114A belongs “disrupting interaction strength”; to L88A, “disrupting interaction strength”.
The same measure, in the same setting: to L110A belongs “disrupting interaction strength”; to F111A, “disrupting interaction strength”.

(Values after IntAct's records for PubMed 17998537.)
